For this data set, the target named is T1, p1 NTR (Tetrahymena, UniProt Q22VV9 1-150).
T1 sequence: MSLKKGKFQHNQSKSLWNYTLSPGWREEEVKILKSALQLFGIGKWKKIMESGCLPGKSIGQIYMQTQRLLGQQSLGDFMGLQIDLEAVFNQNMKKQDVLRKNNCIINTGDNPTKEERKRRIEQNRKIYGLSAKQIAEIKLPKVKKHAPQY
The experiment in a line: fluorescence polarization. (In fluorescence polarisation assays a small probe gives low polarisation when free and higher when bound to something large.)

Here are results for two molecules from article PMC12485025.

B1: umDNA 6-FAM (dsDNA)
DNA 1: AACTTTCTTAACATCTTAACTTTAACT
DNA 2: AGTTAAAGTTAAGATGTTAAGAAAGTT
In general, Kd refers to a measure of binding affinity in units of concentration. Regarding B1, the Kd worked out at 0.037 µM.

B2: hmDNA 6-FAM (27ATrich_6mA_s / 27ATrich_6FAM_a) (dsDNA)
DNA 1: AACTTTCTTAACATCTTAACTTTAACT
DNA 2: AGTTAAAGTTAAGATGTTAAGAAAGTT
modifications: N6-methyl-dA at position 13 of strand 1
For the molecule B2, the dissociation constant Kd is 0.035 µM.
